# Test results from article PMC9279676, “ERK2 MAP kinase regulates SUFU binding by multisite phosphorylation of GLI1” (Life Science Alliance, 2022).
# B1: GLI1_(1-232), wild type, 35S-radiolabeled [modified: [35S]-methionine label; [35S]-methionine label] [human] / GST-SUFU (fusion of GST to full-length human SUFU) [human] (parent)
# chain 1: MFNSMTPPPISSYGEPCCLRPLPSQGAPSVGTEGLSGPPFCHQANLMSGPHSYGPARETNSCTEGPLFSSPRSAVKLTKKRALSISPLSDASLDLQTVIRTSPSSLVAFINSRCTSPGGSYGHLSIGTMSPSLGFPAQMNHQKGPSPSFGVQPCGPHDSARGGMIPHPQSRGPFPTCQLKSELDMLVGKCREEPLEGDMSSPNSTGIQDPLLGMLDGREDLEREEKREPESV
# chain 2: MAELRPSGAPGPTAPPAPGPTAPPAFASLFPPGLHAIYGECRRLYPDQPNPLQVTAIVKYWLGGPDPLDYVSMYRNVGSPSANIPEHWHYISFGLSDLYGDNRVHEFTGTDGPSGFGFELTFRLKRETGESAPPTWPAELMQGLARYVFQSENTFCSGDHVSWHSPLDNSESRIQHMLLTEDPQMQPVQTPFGVVTFLQIVGVCTEELHSAQQWNGQGILELLRTVPIAGGPWLITDMRRGETIFEIDPHLQERVDKGIETDGSNLSGVSAKCAWDDLSRPPEDDEDSRSICIGTQPRRLSGKDTEQIRETLRRGLEINSKPVLPPINPQRQNGLAHDRAPSRKDSLESDSSTAIIPHELIRTRQLESVHLKFNQESGALIPLCLRGRLLHGRHFTYKSITGDMAITFVSTGVEGAFATEEHPYAAHGPWLQILLTEEFVEKMLEDLEDLTSPEEFKLPKEYSWPEKKLKVSILPDVVFDSPLH
# Variants of: B1
# Test: GST-SUFU pull-down binding assay with 35S-radiolabeled in vitro-translated GLI1
# Settings: 10 nM GST-SUFU, parent: 55, read off a plot
row,Variant,response [% GLI1 Bound]
1,chain 1 S130E,33

# Same assay, conditions: 20 nM GST-SUFU, parent: 67, read off a plot
row,Variant,response [% GLI1 Bound]
1,chain 1 S130E,52

# Same assay, conditions: 40 nM GST-SUFU, parent: 80, read off a plot
row,Variant,response [% GLI1 Bound]
1,chain 1 S130E,61

# Same assay, conditions: 80 nM GST-SUFU, parent: 95, read off a plot
row,Variant,response [% GLI1 Bound]
1,chain 1 S130E,72
